Measured values taken from patent US20030177526A1 (PLANT HEALTH CARE, published 2003).

B2: LexA alone (empty bait vector pVJL11) (other)
chain: MKALTARQQEVFDLIRDHISQTGMPPTRAEIAQRLGFRSPNAAEEHLKALARKGVIEIVSGASRGIRLLQEEEEGLPLVGRVAAGEPLLAQQHIEGHYQVDPSLFKPNADFLLRVSGMSMKDIGIMDGDLLAVHKTQDVRNGQVVVARIDDEVTVKRLKKQGNKVELLPENSEFKPIVVDLRQQSFTIEGLAVGVIRNGDWL
notes: Control

Experiments:
[1] = biological target: T1, LexA-harpin fusion (HrpN of Erwinia amylovora in bait vector pVJL11) (Erwinia amylovora, UniProt Q01099 1-403); assay: yeast two-hybrid, harpin as bait
T1 construct: range 1-403; also called HrpN-pVJL11; lexA-harpin fusion protein; not shown: prokaryotic LexA protein (DNA-BD encoded in bait vector pVJL11)
T1 sequence: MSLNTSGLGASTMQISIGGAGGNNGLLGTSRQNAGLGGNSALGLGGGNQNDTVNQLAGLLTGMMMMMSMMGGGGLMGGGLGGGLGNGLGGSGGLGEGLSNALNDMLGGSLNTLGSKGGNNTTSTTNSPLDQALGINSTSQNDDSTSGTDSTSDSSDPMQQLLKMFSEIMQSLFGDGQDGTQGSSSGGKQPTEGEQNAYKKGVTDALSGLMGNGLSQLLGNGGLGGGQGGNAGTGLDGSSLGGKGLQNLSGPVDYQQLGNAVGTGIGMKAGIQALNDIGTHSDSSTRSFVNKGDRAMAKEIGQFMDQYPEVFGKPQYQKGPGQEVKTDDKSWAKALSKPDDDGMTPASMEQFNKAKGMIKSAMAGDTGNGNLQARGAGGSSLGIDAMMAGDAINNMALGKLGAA

[2] = biological target: T2, LexA fused to harpin 137-180 amino acids (Erwinia amylovora, UniProt Q01099 137-180); assay: yeast two-hybrid, harpin fragment as bait
T2 construct: also called harpin fragment that contains the second HR domain; not shown: prokaryotic LexA protein (bait vector)
T2 chain (looked up): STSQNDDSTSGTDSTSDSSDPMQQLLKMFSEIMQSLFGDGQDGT

[3] = biological target: T3, LexA fused to harpin 210-403 amino acids (Erwinia amylovora, UniProt Q01099 210-403); assay: yeast two-hybrid, lacZ and HIS3 reporters
T3 construct: range 210-403; not shown: prokaryotic LexA protein (bait vector)
T3 sequence: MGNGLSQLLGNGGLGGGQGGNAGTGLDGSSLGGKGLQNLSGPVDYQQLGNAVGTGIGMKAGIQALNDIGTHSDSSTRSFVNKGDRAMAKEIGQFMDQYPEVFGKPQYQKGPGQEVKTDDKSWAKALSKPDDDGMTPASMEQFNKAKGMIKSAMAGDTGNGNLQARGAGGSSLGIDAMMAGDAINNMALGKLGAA

[4] = biological target: B2; assay: yeast two-hybrid, lacZ and HIS3 reporters
[5] = biological target: T4, GAL4 activation domain-harpin fusion (hrpN in prey vector pGAD GH) (yeast; Erwinia amylovora, UniProt Q01099 1-403); assay: yeast two-hybrid, lacZ and HIS3 reporters
T4 construct: range 1-403; also called hrpN-pGAD GH
T4 sequence: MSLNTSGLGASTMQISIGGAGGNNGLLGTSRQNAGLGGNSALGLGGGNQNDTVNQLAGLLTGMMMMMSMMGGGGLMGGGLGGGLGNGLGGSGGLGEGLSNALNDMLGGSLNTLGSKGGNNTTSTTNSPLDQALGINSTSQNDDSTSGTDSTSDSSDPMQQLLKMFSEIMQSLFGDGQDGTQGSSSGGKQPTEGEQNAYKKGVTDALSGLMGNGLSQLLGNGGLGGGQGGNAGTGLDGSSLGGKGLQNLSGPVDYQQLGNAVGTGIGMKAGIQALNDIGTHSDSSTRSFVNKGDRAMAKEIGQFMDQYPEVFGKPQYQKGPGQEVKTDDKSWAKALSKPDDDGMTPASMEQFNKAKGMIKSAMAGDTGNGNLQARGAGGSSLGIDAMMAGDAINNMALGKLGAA

[6] = biological target: T5, GAL4 activation domain-AtHrBP1p fusion (longest 1 kb cDNA insert in pGAD 10) (yeast; Arabidopsis thaliana, UniProt Q9LW57 1-284); assay: yeast two-hybrid, lacZ and HIS3 reporters
T5 construct: Yeast two-hybrid prey; also called AtHrBP1-AD fusion prey
T5 sequence: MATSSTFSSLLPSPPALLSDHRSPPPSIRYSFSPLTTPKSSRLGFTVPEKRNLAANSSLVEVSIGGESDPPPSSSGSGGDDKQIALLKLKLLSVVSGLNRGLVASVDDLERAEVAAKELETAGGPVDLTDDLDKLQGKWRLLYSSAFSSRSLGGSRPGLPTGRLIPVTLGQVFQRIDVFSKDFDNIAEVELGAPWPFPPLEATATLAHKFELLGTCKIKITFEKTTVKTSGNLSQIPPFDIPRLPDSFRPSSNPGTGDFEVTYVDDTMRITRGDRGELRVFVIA

[7] = biological target: T1, LexA-harpin fusion (HrpN of Erwinia …); assay: yeast two-hybrid, lacZ and HIS3 reporters
[8] = biological target: T6, LexA-AtHrBP1p fusion (AtHrBP1 in bait vector pVJL11) (Arabidopsis thaliana, UniProt Q9LW57 1-284); assay: yeast two-hybrid, lacZ and HIS3 reporters
T6 construct: Yeast two-hybrid bait, opposite orientation; also called AtHrBP1-pVJL11; AtHrBP1p fused with the DNA-BD; not shown: prokaryotic LexA protein (DNA-BD encoded in bait vector pVJL11)
T6 sequence: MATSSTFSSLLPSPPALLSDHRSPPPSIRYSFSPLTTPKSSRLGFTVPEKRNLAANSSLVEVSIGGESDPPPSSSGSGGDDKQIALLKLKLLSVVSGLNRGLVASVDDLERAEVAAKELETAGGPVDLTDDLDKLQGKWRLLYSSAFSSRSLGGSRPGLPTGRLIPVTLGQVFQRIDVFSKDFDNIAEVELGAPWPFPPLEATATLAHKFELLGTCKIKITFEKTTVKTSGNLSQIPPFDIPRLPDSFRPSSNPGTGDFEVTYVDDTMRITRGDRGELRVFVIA

B1: GAL4 activation domain-rice HrBP1p (R6p) fusion (receptor)
chain: VAALKVKLLSAVSGLNRGLAGSQEDLDRADAAARELEAAAGGGPVDLERDVDKLQGRWRLVYSSAFSSRTLGGSRPGPPTGRLLPITLGQVFQRIDVVSKDFDNIVDVELGAPWPLPPVELTATLAHKFEIIGTSSIKITFDKTTVKTKGNLSQLPPLEVPRIPDNLRPPSNTGSGEFEVTYLDGDTRITRGDRGELRVFVIS
notes: Partial cDNA clone from a yeast two-hybrid screen with harpin as bait; not full length
- binding result [1]: binds
- binding result [2]: binds
- binding result [3]: no binding
- binding result [4]: no binding

Binder: B2
- binding result [5]: no binding
- binding result [6]: no binding

B3: GAL4 activation domain alone (empty prey vector pGAD GH) (other)
chain: ANFNQSGNIADSSLSFTFTNSSNGPNLITTQTNSQALSQPIASSNVHDNFMNNEITASKIDDGNNSKPLSPGWTDQTAYNAFGITTGMFNTTTMDDVYNYLFDDEDTPPNPKKE
notes: Control
- binding result [7]: no binding
- binding result [8]: no binding
